Measured values published in patent publication US20250276077A1, “EPHA2 ANTIBODIES” (Immunome, Inc., priority 2022, published 2025).

Legend:
[1] = target: Human EphA2 (ephrin receptor A2), native, in human tumor tissue (human) (UniProt P29317); test: IF tumor tissue ESO, 1 ug/ml
[2] = target: Human EphA2 (ephrin receptor A2), native, in human tumor tissue (human) (UniProt P29317); test: IF tumor tissue ESO, 3 ug/ml
[3] = target: Human EphA2 (ephrin receptor A2), native, in human tumor tissue (human) (UniProt P29317); test: IF tumor tissue STS, 1 ug/ml
[4] = target: Human EphA2 (ephrin receptor A2), native, in human tumor tissue (human) (UniProt P29317); test: IF tumor tissue STS, 3 ug/ml
[5] = target: Human EphA2 (ephrin receptor A2), native, in human tumor tissue (human) (UniProt P29317); test: IF tumor tissue URO, 1 ug/ml
[6] = target: Human EphA2 (ephrin receptor A2), native, in human tumor tissue (human) (UniProt P29317); test: IF tumor tissue ESO, 30 ug/ml
[7] = target: Human EphA2 (ephrin receptor A2), native, in human tumor tissue (human) (UniProt P29317); test: IF tumor tissue MELA, 1 ug/ml
[8] = target: Human EphA2 (ephrin receptor A2), native, in human tumor tissue (human) (UniProt P29317); test: IF tumor tissue URO, 30 ug/ml
[9] = target: Human EphA2 (ephrin receptor A2), native, in human tumor tissue (human) (UniProt P29317); test: IF tumor tissue ESO, 0.1 ug/ml
[10] = target: Human EphA2 (ephrin receptor A2), native, in human tumor tissue (human) (UniProt P29317); test: IF tumor tissue MELA, 10 ug/ml
[11] = target: Human EphA2 (ephrin receptor A2), native, in human tumor tissue (human) (UniProt P29317); test: IF tumor tissue PANC, 10 ug/ml
[12] = target: Human EphA2 (ephrin receptor A2), native, in human tumor tissue (human) (UniProt P29317); test: IF tumor tissue STS, 0.1 ug/ml
[13] = target: Human EphA2 (ephrin receptor A2), native, in human tumor tissue (human) (UniProt P29317); test: IF tumor tissue STS, 0.3 ug/ml
[14] = target: Human EphA2 (ephrin receptor A2), native, in human tumor tissue (human) (UniProt P29317); test: IF tumor tissue Uterine, 1 ug/ml
[15] = target: Human EphA2 (ephrin receptor A2), native, in human tumor tissue (human) (UniProt P29317); test: IF tumor tissue NSCLC-SQ, 3 ug/ml
[16] = target: Human EphA2 (ephrin receptor A2), native, in human tumor tissue (human) (UniProt P29317); test: IF tumor tissue Uterine, 10 ug/ml
[17] = target: Human EphA2 (ephrin receptor A2), native, in human tumor tissue (human) (UniProt P29317); test: IF tumor tissue Uterine, 30 ug/ml
[18] = target: Human EphA2 (ephrin receptor A2), native, in human tumor tissue (human) (UniProt P29317); test: IF tumor tissue NSCLC-SQ, 30 ug/ml
[19] = target: Human EphA2 (ephrin receptor A2), native, in human tumor tissue (human) (UniProt P29317); test: IF tumor tissue NSCLC-Adeno, 10 ug/ml
[20] = target: Human EphA2 (ephrin receptor A2), native, in human tumor tissue (human) (UniProt P29317); test: IF tumor tissue NSCLC-Adeno, 30 ug/ml
[21] = target: Human EphA2 (ephrin receptor A2), native, in human tumor tissue (human) (UniProt P29317); test: IF tumor tissue RCC-papillary, 1 ug/ml
[22] = target: Human EphA2 (ephrin receptor A2), native, in human tumor tissue (human) (UniProt P29317); test: IF tumor tissue RCC-papillary, 3 ug/ml
[23] = target: Human EphA2 (ephrin receptor A2), native, in human tumor tissue (human) (UniProt P29317); test: IF tumor tissue RCC-papillary, 0.1 ug/ml
[24] = target: Human EphA2 (ephrin receptor A2), native, in human tumor tissue (human) (UniProt P29317); test: IF tumor tissue RCC-papillary, 0.3 ug/ml
[25] = target: Human EphA2 (ephrin receptor A2), native, in human tumor tissue (human) (UniProt P29317); test: tissue staining of human cancer samples, 10 ug/ml

Human EphA2 (ephrin receptor A2), native, in human tumor tissue (human), sequence (P29317 25-976): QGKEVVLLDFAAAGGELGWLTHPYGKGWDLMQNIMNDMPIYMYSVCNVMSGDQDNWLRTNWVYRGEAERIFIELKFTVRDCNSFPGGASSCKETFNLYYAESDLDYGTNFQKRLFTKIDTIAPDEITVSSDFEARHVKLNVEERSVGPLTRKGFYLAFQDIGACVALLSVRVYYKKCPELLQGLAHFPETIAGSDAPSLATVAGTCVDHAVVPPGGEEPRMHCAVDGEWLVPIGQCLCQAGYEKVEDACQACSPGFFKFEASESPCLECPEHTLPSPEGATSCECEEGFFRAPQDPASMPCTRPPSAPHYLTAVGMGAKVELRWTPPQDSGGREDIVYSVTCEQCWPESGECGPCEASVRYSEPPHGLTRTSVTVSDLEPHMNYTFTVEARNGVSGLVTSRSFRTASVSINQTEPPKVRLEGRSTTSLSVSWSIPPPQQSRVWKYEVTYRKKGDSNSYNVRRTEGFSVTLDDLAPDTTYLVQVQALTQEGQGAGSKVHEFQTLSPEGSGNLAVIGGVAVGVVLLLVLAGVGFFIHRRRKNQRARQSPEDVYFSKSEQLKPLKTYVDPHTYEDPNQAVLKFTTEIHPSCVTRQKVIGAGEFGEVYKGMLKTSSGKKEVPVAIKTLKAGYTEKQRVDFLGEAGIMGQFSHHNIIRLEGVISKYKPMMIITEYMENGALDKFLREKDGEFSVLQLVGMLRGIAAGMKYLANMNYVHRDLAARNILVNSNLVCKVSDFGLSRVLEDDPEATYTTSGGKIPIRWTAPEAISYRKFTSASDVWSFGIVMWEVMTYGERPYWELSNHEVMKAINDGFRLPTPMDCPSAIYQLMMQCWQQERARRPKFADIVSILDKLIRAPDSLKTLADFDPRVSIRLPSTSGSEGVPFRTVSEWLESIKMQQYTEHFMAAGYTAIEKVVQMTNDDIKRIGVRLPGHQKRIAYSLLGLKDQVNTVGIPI

AB-010018 (mouse monoclonal antibody precursor of DS-8895a; mouse IgG2a format)
tissue reactivity score [1]: 1
tissue reactivity score [2]: 1
tissue reactivity score [3]: 1
tissue reactivity score [4]: 1
tissue reactivity score [5]: 2
tissue reactivity score [6]: 2
tissue reactivity score [7]: 2
tissue reactivity score [8]: 2
tissue reactivity score [9]: 1
tissue reactivity score [10]: 2
tissue reactivity score [11]: 2
tissue reactivity score [12]: 1
tissue reactivity score [13]: 1
tissue reactivity score [14]: 2
tissue reactivity score [15]: 1
tissue reactivity score [16]: 2
tissue reactivity score [17]: 2
tissue reactivity score [18]: 2
tissue reactivity score [19]: 1
tissue reactivity score [20]: 1
tissue reactivity score [21]: 1
tissue reactivity score [22]: 2
tissue reactivity score [23]: 1
tissue reactivity score [24]: 1
Reactive (% of samples), Bladder Cancer (Urothelial) [25]: 86%
Reactive (% of samples), Breast Cancer [25]: 79%
Reactive (% of samples), Cervical Cancer (Squamous) [25]: 100%
Reactive (% of samples), Esophageal Cancer (Squamous) [25]: 33%
Reactive (% of samples), Head & Neck Cancer (Squamous) [25]: 87%
Reactive (% of samples), Liver Cancer (HCC) [25]: 82%
Reactive (% of samples), Non-Small Cell Lung Cancer [25]: 90%
Reactive (% of samples), Ovarian Cancer [25]: 88%
Reactive (% of samples), Renal Cancer [25]: 47%
Reactive (% of samples), Soft Tissue Sarcoma [25]: 20%
Reactive (% of samples), Stomach Cancer (Adenocarcinoma) [25]: 88%
Reactive (% of samples), Testicular Cancer [25]: 56%
Reactive (% of samples), Thyroid Cancer [25]: 31%
Reactive (% of samples), Uterine Cancer [25]: 92%
